Paper PMC9175105

Key:
[1] = molecular target: shedded GPIbα or glycocalicin (UniProt P07359)
[2] = molecular target: shedded GPIbα or glycocalicin (UniProt P07359); experiment: biomembrane force probe (BFP), force-clamp assay; bead-bead mode; VWF-A1 on the probe bead, glycocalicin on the target bead; single bonds held at clamp forces of 10-70 pN; bond lifetime vs force; beads without treatment
[3] = molecular target: shedded GPIbα or glycocalicin (UniProt P07359); experiment: biomembrane force probe (BFP), adhesion frequency assay; bead-bead mode; VWF-A1 covalently linked to the probe bead, glycocalicin to the target bead; 20 pN impingement, 0.2 s contact; 200 approach-contact-retract cycles per probe-target pair, five pairs

mean rolling velocity of washed human platelets (native GPIbα) on coated 1261^H-A1 at 800 s^-1 [1]: 3.15 μm s^−1
tethered platelet density; washed human platelets (native GPIbα) perfused at 800 s^-1 for 30 s over coated 1261^H-A1, no treatment [1]: 0.0053 μm^−2
peak bond lifetime at 20-25 pN [2]: 2.26 s
adhesion frequency (Pa) [3]: 0.13
Substance: VWF-A1 with short N-AIM, high binder form, 1261^H-A1 (from UniProt P04275 1261-1472) (domain or fragment)
